The supplement of paper PMC9170038

Tested on: MS2 coat protein
Test: apparent KD of MS2 coat protein; designed switch direction (-1 OFF switch, 1 ON switch): -1; higher = weaker reporter binding
How it was run: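 Designed RNA switches with common flanks were transcribed on Illumina chips by stalled E. coli RNA polymerase and titrated with SNAP-549-labelled MS2 coat protein, from 0.7 or 1.5 nM doubling to 3 µM, in Tris-HCl pH 7.5 buffer with KCl, MgCl2, BSA, DTT, tRNA and Tween-20. Steps lasted 0.8–1.5 h (lowest) to 10–20 min (highest). Titrations ran without input, with 200 uM small-molecule ligand, or with an oligonucleotide input. Normalised cluster fluorescence was curve-fitted, and apparent KD is the per-design median over clusters.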

[1] = Eterna round: R95, input ligand: FMN 200 uM
[2] = Eterna round: R95, input ligand: microRNA oligo, concentration not stated
[3] = Eterna round: R95, input ligand: none
[4] = input ligand: microRNA oligo, concentration not stated

Row | Sequence | apparent KD of MS2 coat protein (input ligand: FMN 200 uM) [µM] | apparent KD of MS2 coat protein (input ligand: none) [µM] | apparent KD of MS2 coat protein [1] [µM] | apparent KD of MS2 coat protein [2] [µM] | apparent KD of MS2 coat protein [3] [µM] | apparent KD of MS2 coat protein [4] [µM]
1 | AACAGUCUAGAGGAUAUGUGGGAUUAAUAUCUUGCAGAAGGCUGGACAUGAGGAUCACCCAUGUAAAUACUACC [Omei Ex6 A15] (Eterna round: R97, puzzle: Exclusion 6) | 0.0808 | 0.0329 | – | – | – | –
2 | AUUAUAAUAUAGGAUAUCGAAAUAAUUAUUUAACGAGAAGGAUGAACAUGAGGAUCACCCAUGUGGUAUCAUGG [Mat - Exclusion 6 - JL Mod - D33] (puzzle: Exclusion 6) | – | – | 0.16 | 0.36 | 0.224 | –
3 | ACAUGUUAUGUAGGAUAUUAGACACAUGAGGAUCACCCAUGUAACCGGAGGCUUUACUAUGAGUUUGAGAAGGGUAUGAACAUG [Ex NG2 #66] (Eterna round: R96, puzzle: Exclusion NG 2) | 0.0781 | 0.0921 | – | – | – | 0.0454
4 | UUAUAAAGUGUGAGGAUAUGCUGGUCCUUAGAUCAGCAGAAGGCACAUGAGGAUCACCCAUGUAAUAUAUUUUU [Mat - Exclusion 4 - JL Mod - D42] (puzzle: Brourd's mod of Exclusion 4) | – | – | – | 0.0339 | – | –
5 | GAUAAGGGAGGAUAUACGGAACGGUUUAUGCUCAGUGAGGCACAUGAGGAUCACCCAUGUAGAAGGCCCGACAG [Gezaerti] (puzzle: Exclusion 2) | – | – | – | 0.0256 | – | –
6 | CUCAGACAUGAGGAUCACCCAUGUGAGGAUAUGAUGCGAUCGUCGAAAGACGAUAGCAUCAGAAGGCACAAAUG [Fiskers Ex 1 - 24] (puzzle: Exclusion 1) | – | – | – | 0.0712 | – | –
7 | CCUCUACAUGAGGAUCACCCAUGUGAGGAUAUCAAAGCCAGAACGGAUCUCUGGCCCAUGAGAAGGUGCAUGGA [EX1 A.2] (Eterna round: R97, puzzle: Exclusion 1) | 0.119 | 0.0223 | – | – | – | –
8 | AGUGGGCGCGUAGGAUAUGAGGAUCACCCAUAGAAGGAUAUCGAAAGAGAAGGUCUGAGGAUUACCCAGAAGGACGGGUUUGUA [pwkr exNG2 2xF5 2xFMN.15] (Eterna round: R96, puzzle: Exclusion NG 2) | 0.925 | 0.232 | – | – | – | 0.278
9 | CCAGAGUGAGGAUAUGCAUAAAGGUGCUGUCCCGUGGCUUGACAUGAGGAUCACCCAUGUAGAAGGUGCGUUGU [Raonra] (Eterna round: R96, puzzle: Exclusion 2) | 0.0516 | 0.0544 | – | – | – | 0.0356
10 | UUGUUUUUUGAGGAUAUGCGACGUUUUUUCGUCGUAGAAGGCGAUACAUGAGGAUCACCCAUGUUUAUGGGCAU [LRO-Ex6-14] (puzzle: Exclusion 6) | – | – | – | 0.122 | – | –
11 | CGCUAUAGAGGAUAUACGAGAUCGAAAGAUCGGCGAUCCCUACAUGAGGAUCACCCAUGUAGAAGGCUAUAGCG [Mod 18 - Jieux - Exclusion 2] (Eterna round: R97, puzzle: Exclusion 2) | 0.0833 | 0.0157 | – | – | – | –
12 | UUUUUCUCAGGAUAUACAUGAGGAUCACCCAUGUAUAUUAAGAAUAAUACAUGGGAAUGUAGAAGGGAGCUCAU [Omei Ex3 Pseudoloop 10] (Eterna round: R97, puzzle: Exclusion 3) | 0.101 | 0.129 | – | – | – | –
13 | AAUUAAGCAAGCAGAUCCCACAUGAGGAUCACCCAUGUGCUCGUCUUAUAAGGUACUGUGACGAUAGUCACGGUACC [Mat - Sensor, turn-off var - Eli Mod - D71] (Eterna round: R97, puzzle: Sensor, turn-off variant 1) | 0.135 | 0.14 | – | – | – | –
14 | GAAAAGGUAGAGGAUAUUUCAGAUCAAAGCUGCAAAGAAGGCUGCACAUGAGGAUCACCCAUGUGGUCAACAAA [Mod of Quesina 13 - Jieux - Exclusion 6] (Eterna round: R97, puzzle: Exclusion 6) | 0.0661 | 0.0211 | – | – | – | –
15 | AAGUACCGUCACGAAAGUGAUGGUACAGCAAGUAAAUGUACAUGAGGAUCACCCAUGUCCUCAAUUGCUCGUCUUAU [Sensor 3 - 59] (puzzle: Sensor v3, turn-off variant 2) | – | – | 0.185 | 0.173 | 0.212 | –
16 | AAAUCUGCUGAGGAUAUGAUGACUGAGAGGUCAUCAGAAGGCGGUACAUGAGGAUCACCCAUGUCUAUGGGCAA [Ex-6 Malc#30] (puzzle: Exclusion 6) | – | – | – | 0.243 | – | –
17 | UAUUACUCAGGAUAUAUGAUGUGAAACAUGAGGAUCACCCAUGUAAUAUUAUGGAUGUAAAUAGAAGGGAGAUUAU [Mat - Exclusion 5 - JL mod - D19] (puzzle: Exclusion 5) | – | – | 0.0492 | 0.0518 | 0.0646 | –

Row | Sequence | apparent KD of MS2 coat protein (input ligand: FMN 200 uM) [µM] | apparent KD of MS2 coat protein (input ligand: none) [µM] | apparent KD of MS2 coat protein [1] [µM] | apparent KD of MS2 coat protein [2] [µM] | apparent KD of MS2 coat protein [3] [µM] | apparent KD of MS2 coat protein [4] [µM]
18 | AAGAAACAUGAGGAUCACCCAUGUGAGGAUAUGUAAAAUAAAAGAAAAUAAAGAAUAAACAGAAGGCACAAAGG [Mat - Mod of Hog D23] (puzzle: Exclusion 1) | – | – | 0.048 | 0.0466 | 0.0435 | –
19 | AACGUGUAAGGAUAUGCUGCUCGUCACGAAAGUGAUGAGUAGCAGAAGGUACAUGAGGAUCACCCAUGUAAAGA [Exclusion 4.1f (Exclusion4-cac2 - changed GC at 6/50 to AU )] (Eterna round: R96, puzzle: Exclusion 4) | 0.0916 | 0.0222 | – | – | – | 0.019
20 | GGGCCCGGUGUGAGGAUAUUUGAAGUGAAAGCUUCGGAGAAGGCACAUGAGGAUCACCCAUGUAAGCCGGGCCC [-35.9, -33.8 kcal, A 26%, 3bis-0] (Eterna round: R97, puzzle: Brourd's mod of Exclusion 4) | 0.0161 | 0.0134 | – | – | – | –
21 | AGUAGUUCAGGAUAUGAUGAAGAGAACAUGAGGAUCACCCAUGUUGCAUCGUUUUUAUCAUCAGAAGGGAAUAACU [JR_Ex5_Sub085] (Eterna round: R97, puzzle: Exclusion 5) | 0.0127 | 0.0131 | – | – | – | –
22 | UUUAGUUUAGGAUAUGUAGACAUUAACAUGAGGAUCACCCAUGUAGAUCCUGAAUUGGCUACAGAAGGAAGCAUUU [Mod of Brourd 11 - Jieux - Exclusion 5] (Eterna round: R97, puzzle: Exclusion 5) | 0.169 | 0.354 | – | – | – | –
23 | GAUAAGGUAGGAUAUACGAAUAAAGAGGGUAGUAAUAAUACACAUGAGGAUCACCCAUGUAGAAGGACCAAUAG [Mat - Exclusion 2 - Mod of my Tesla design - D42] (puzzle: Exclusion 2) | – | – | 0.0412 | 0.0193 | 0.0179 | –
24 | AGUAGAUCUACGCUUGCGUGGAUCUGCUAUGCAGGUGUUACAUGAGGAUCACCCAUGUCCUCAUUUGUUCGUCUUAU [JL turnoff v2 99.15] (puzzle: Sensor v3, turn-off variant 2) | – | – | 0.135 | 0.111 | 0.185 | –
25 | UUUAUGUAAGGAUAUAUGGGUUUAAAUGAAAAUUUGGGCCCAUAGAAGGUACAUGAGGAUCACCCAUGUAGUGG [-24.4, -24.3 kcal, 32% A] (Eterna round: R97, puzzle: Exclusion 4) | 0.474 | 0.641 | – | – | – | –
26 | AAGAACGUACAAGGAUAUCUCCACCACAACGGCAGAGAAGGUGUACAUGAGGAUCACCCAUGUGACCGAAGGCCCUUAUGGGCC [Xeerergeza] (Eterna round: R96, puzzle: Exclusion NG 1) | 0.0798 | 0.0296 | – | – | – | 0.0206
27 | AGCGAGGAGACAGGAUAUGAGAAUAGAUAGAACUCAGAAGGGUCACAUGAGGAUCACCCAUGUAAAGUCUUGAGGCUGCGUGGU [Prohibition 8 - Jieux - Exclusion NG 1] (Eterna round: R96, puzzle: Exclusion NG 1) | 0.239 | 0.0882 | – | – | – | 0.0843
28 | CUAGAGUGAGGAUAUACGAGAUCGAAAGAUCGGCGAUCCCUACAUGAGGAUCACCCAUGUAGAAGGCACUCUAG [Mod 12 - Jieux - Exclusion 2] (Eterna round: R97, puzzle: Exclusion 2) | 0.115 | 0.016 | – | – | – | –
29 | AGACGAUCGUAGGAUAUCGGAAGGUCACUGGACUGAGAAGGACGAACAUGAGGAUCACCCAUGUGAUCUCUGGU [Eternabot (L2) Solution 43] (Eterna round: R97, puzzle: Exclusion 6) | 0.779 | 0.734 | – | – | – | –
30 | CGAGUGUAAGGAUAUUCGGCGCCAGAGAACGAUCUGACGUAGAAGAAGGUACAUGAGGAUCACCCAUGUGGUUA [Geinzarace] (puzzle: Exclusion 4) | – | – | 0.0416 | 0.102 | 0.204 | –
31 | AUAACGUGGGCGUCCCACGGCAAGCUUUUUGCUCGUUUGACAUGAGGAUCACCCAUGUAGCUGCGGGAUCCCUAUGA [Anatsobe] (puzzle: Sensor v3, turn-off variant 2) | – | – | 0.0176 | 0.0225 | 0.0152 | –
32 | AUACUCGUUGUGAGGAUAUCGUUUUCGUCACGGAUCGAGAAGGCACAUGAGGAUCACCCAUGUUUGACGUGAAU [JR_BMOE4_Sub092] (puzzle: Brourd's mod of Exclusion 4) | – | – | – | 0.0154 | – | –
33 | CCUUGACAUGAGGAUCACCCAUGUGAGGAUAUGAUGCGAUCGUCGAAAGACGAUAGCAUCAGAAGGCACAUAUG [Fiskers Ex 1 - 8] (puzzle: Exclusion 1) | – | – | – | 0.0252 | – | –
34 | GAUCAACAUGAGGAUCACCCAUGUGAGGAUAUGAUACUAUGUACUUCGGUACAUAGUAUCAGAAGGCAUUAGGA [Ex1-3: 39] (puzzle: Exclusion 1) | – | – | – | 0.0523 | – | –
